Source: US10736923B2, “Methods and compositions for generating chondrocyte lineage cells and/or cartilage like tissue” (UNIVERSITY HEALTH NETWORK, priority 2013, dated 2020)

Tests used:
Assay type in all cases: cell-based, human
[1] = tested on: hiPSCs; test: Induction of primitive streak-like mesoderm from hiPSCs, flow cytometry; details: hIPSCs induced with Activin A 3 ng/ml, BMP4 1 ng/ml, basic FGF 5 ng/ml and CHIR99061 1 micromolar, day 1 to day 3
Description: FIG. 1. Serum-free differentiation of paraxial mesoderm, chondrocyte progenitors, and cartilage tissues from human pluripotent stem cells (hPSCs). […] On day 4 (T4), mesoderm populations are monitored by the expression of CD56 and PDGFRa on the cell surface by flow cytometry (B). Day 4 mesoderm cells are specified to a paraxial mesoderm fate in monolayer culture by treatment of Dorsomorphin, a BMP inhibitor, a TGFbeta inhibitor SB431542, and bFGF, from days 4 to 6 and bFGF from days 4 to 15 (stage 2). Day 15 paraxial mesoderm cells can generate chondrocyte progenitors by plating in a high density ‘spot’ termed micromass, or by plating onto collagen coated membrane filters (not shown) in the presence of TGFB3 for approximately 10 days (stage 3). Chondrocyte progenitors can be specified to articular chondrocytes or growth plate-like chondrocytes in a cartilage tissue format during stage 4 of differentiation by extended stimulation with TGFB3 (articular) or […] (growth plate-like) for example for 12 weeks. Tissues have been kept in culture for at least 7 months.

[2] = tested on: hPSC-derived chondrocytes; test: CD73 flow cytometry of hPSC-derived cartilage tissues; details: hPSC-derived cartilage tissues after 11 weeks
Description: (§1) FIG. 6. CD73 is expressed by articular chondrocytes. Flow cytometric analyses of primary chondrocytes (A) Healthy adult articular chondrocytes and iliac crest GPC-like chondrocytes, (B) Primary fetal chondrocytes, primary (C) or passaged (passage (P)2, D) fetal chondrocytes after 9 to 10 weeks of micromass culture in the presence of TGFB3 or BMP4, and (E) hPSC-derived chondrocytes after 11 weeks derived in the presence of TGFB3 or BMP4. (F) Time course of CD73 and PDGFR-beta cells surface expression on T12 and T15 paraxial mesoderm populations, and micromass cultures treated with TGFB3 after 3 days, 10 days, and 2 weeks. (G) Time course of CD73 expression on TGFB3-treated micromasses after 3 days, 7 days, 10 days, and 2 to 5 weeks.
Primary (P0) and passaged (P2) fetal chondrocytes can also be cultured in micromass with TGFB3 or BMP4, similar to how hPSC-derived cartilage tissues are formed. TGFB3-treated fetal P0-derived or fetal P2-derived cartilage tissues contain over 93% CD73 positive cells, while BMP4 treatment reduces the percentage of CD73+ cells to 70% and 61% respectively (FIG. 6C,D). CD73 expression is also expressed by over 98% of hPSC-derived cartilage tissues derived with TGFB3-treatment (FIG. 6E). The percentage of CD73+ cells is reduced to only about 57% of cells after BMP4-treatment. […]

[3] = tested on: fetal chondrocytes; test: CD73 flow cytometry of fetal chondrocytes in micromass culture; details: 9 to 10 weeks of micromass culture
Description: as §1
Primary (P0) and passaged (P2) fetal chondrocytes can also be cultured in micromass with TGFB3 or BMP4, similar to how hPSC-derived cartilage tissues are formed. TGFB3-treated fetal P0-derived or fetal P2-derived cartilage tissues contain over 93% CD73 positive cells, while BMP4 treatment reduces the percentage of CD73+ cells to 70% and 61% respectively (FIG. 6C,D). CD73 expression is also expressed by over 98% of hPSC-derived cartilage tissues derived with TGFB3-treatment (FIG. 6E). The percentage of CD73+ cells is reduced to only about 57% of cells after BMP4-treatment. Thus, CD73 marks primary healthy adult ACs, a proportion of healthy fetal chondrocytes, fetal chondrocytes or passaged fetal chondrocytes cultured as micromasses in TGFB3, and TGFB3-treated articular chondrocyte-like cells derived from human PSCs.

[4] = tested on: hPSC-derived paraxial mesoderm; test: Chondrocyte specification in micromass culture with TGFB3 or BMP4 (histology, scatter flow cytometry, qRT-PCR, immunostaining)
Description: FIG. 4. TGFB3 and BMP4 specify chondrocytes and cartilage-like tissues with articular cartilage and growth plate cartilage phenotypes. (A) Micrographs of 5 week old micromasses derived with TGFB3 or BMP4, 20× magnification. (B) Tissue histology (stained with toluidine blue) of 13 week cartilage tissues derived with TGFB3 or BMP4. […] (C) Flow cytometric analysis of forward and side cell scatter parameters of 3 week and 5 week old micromasses. Side scatter indicates cell granularity and forward cell scatter indicates cell size. (D) Comparison of hPSC-derived micromass tissues to fetal primary chondrocyte derived micromass tissues and the developing human fetal femur cartilage. Articular cartilage regions appear to have smaller cells in size compared to growth plate like regions, which contain cells which appear enlarged (hypertrophic). Cartilage tissues in micromass as well as in the fetal femur stain uniformly with the toluidine blue stain (images are pink/purple in color and indicate the presence of cartilage proteins). The BMP4-treated micromass tissues contain a large number of enlarged cells which is similar to the bottom panel of the fetal cartilage which represents a growth plate cartilage. TGFB3 treated micromass cultures contain fewer, if any, enlarged chondrocytes, and appear similar to the upper panel of the fetal cartilage which is the site of articular cartilage. (E) Micrograph using GDF5 instead of BMP4 to generate hypertrophic chondrocytes. (F) Histological analyses of cartilage tissues derived from hiPSCs stained with Toluidine blue after 12 weeks. (G,H) Immunohistochemical staining of hESC-derived cartilage tissues for type II Collagen (G, 8 week tissues), and lubricin (H, 12 week tissues).
FIG. 5. Gene expression analyses of chondrocyte specification in the presence of TGFB3 or BMP4 during stages 3 and 4 of differentiation respectively. General chondrocyte genes Sox9 (A) and collagen 2 (B), hypertrophic genes collagen 10 (C), Runx2 (D), osterix (E) and alkaline phosphatase (F), articular cartilage associated genes lubricin (G) and cartilage intermediate layer protein 2 (CILP2) (H), interzone-related (joint progenitor) genes GDF5 (I), ERG (J) and Wnt9a (K). Expression is copy number relative to TBP (n=3 to 8 biological replicates) and is compared to primary fetal chondrocytes (aged 16 to 19 weeks, n=4), primary healthy adult articular chondrocytes (n=2), and growth plate-like chondrocytes isolated from the iliac crest of an adult (n=1). T15 Mesoderm indicates day 15 hESC-derived paraxial mesoderm (DM+FGF-treated). Error bars indicate s.e.m.
FIG. 8. TGFβ1, TGFβ2, and TGFβ3 generated articular chondrocytes from hPSC-derived paraxial mesoderm. COL2A1, lubricin, and CILP2 gene expression after 12 weeks of micromass culture in the presence of TGF agonists as indicated (10 ng/ml). Values represent copy number mRNA relative to TBP. Error bars indicate s.e.m.
Previous studies have shown that TGFBeta/BMP signaling is required to generate chondrocyte progenitors from paraxial mesoderm. […] Following 10 days of TGFb3 treatment (day 25 total), cultures could be switched to media containing BMP4 or maintained in TGFb3 (stage 4) in order to specify subsets of chondrocytes (articular/non-hypertrophic or growth plate/hypertrophic). To determine the chondrocyte potential of the day 15 mesoderm populations, the cells were plated at high cell density in a 20 microliter volume on tissue culture treated Petri dishes for an hour (micromass) and then the ‘spot’ was submerged/covered with media. In our initial studies, the cells were ‘spotted’ in a media containing 2% fetal bovine serum. However, this short serum exposure can be omitted with no effects on cartilage formation at later stages, making this protocol optionally serum-free. After 2 to 3 days, serum-free media containing TGFb3 is added to the culture to generate chondrocyte progenitors. […]

`Cc1cnc(-c2cnc(NCCNc3ccc(C#N)cn3)nc2-c2ccc(Cl)cc2Cl)[nH]1` [CHIR99061] was tested, and the “expression of cell surface markers CD56, PDGFRalpha and KDR” value [1] was “also expresses CD56, PDGFRalpha and KDR”.

B1: TGFB3: TGFbeta agonist (protein, UniProt P10600 301-412, looked up)
Transforming growth factor …: ALDTNYCFRNLEENCCVRPLYIDFRQDLGWKWVHEPKGYYANFCSGPCPYLRSADTTHSTVLGLYNTLNPEASASPCCVPQDLEPLTILYYVGRTPKVEQLSNMVVKSCKCS
B1 was tested, and the CD73 positive cells [2] was “over 98%”, the CD73 positive cells ([3]; passaged (P2) fetal chondrocytes) was “over 93%” and the CD73 positive cells ([3]; primary (P0) fetal chondrocytes) was “over 93%”. The “forward and side scatter of live cells (cell size, granularity)” value ([4]; 3 week and 5 week micromasses) was “tight population of smaller, less granular cells”, the chondrocyte morphology ([4]; 5 week old micromasses) was “small fibroblastic-like phenotype” and the “Lubricin protein (immunohistochemistry)” value ([4]; 12 week micromass tissue) was “present”. For the same molecule, the “tissue histology (toluidine blue), chondrocyte size” value ([4]; 13 week old tissues, GDF5 instead of BMP4) was “small cells (chondrocytes) dispersed evenly throughout the tissue”, the “expression of mature AC genes, such as lubricin and CILP2” value ([4]; extended period of time (up to 12 weeks)) was “allows for the expression of mature AC genes” and the COL2A1 expression ([4]; qRT-PCR, by 2 weeks of culture) was “upregulated”. The SOX9 expression ([4]; qRT-PCR, by 2 weeks of culture) was “upregulated”.
